± gives the standard deviation.
Assay: protein stability index of a GFP-peptide fusion (GPS, HEK-293T) (PSI 1-6); higher = more stable
Details: c terminus: a fixed tail appended
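Also: 24-mer peptide tiles fused after GFP, lentivirally expressed, FACS-sorted into six equal bins by GFP/DsRed ratio, decoded by Illumina sequencing, PSI is the read-weighted mean bin number.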

Sequence | protein stability index (treatment: DMSO) | protein stability index (treatment: MLN4924 1 uM, 8 h)
LRQFDLAWQYGPCTGITRLQRWCR [POLD4] | 2.26 ± 0.21 | 2.32 ± 0.27
GSMVEIAKQLQAVKRKIRDESLCP [TRIM39] | 3.09 ± 0.24 | 3.15 ± 0.24
ASLLHLAVEAGQEECAKWLLLNNA [RIPK4] | 2.17 ± 0.068 | 2.74 ± 0.13
RESCPPLGLETLKITDFQLHASTV [CPXM2] | 3.29 ± 0.15 | 3.32 ± 0.14
LERQNQEYQVLLDVKARLEGEIAT [KRT36] | 3.93 ± 0.077 | 4.02 ± 0.2
MELLRTITYQPAASTKMCEQALGK [PLK2] | 2.46 ± 0.47 | 3.06 ± 0.43
KRQVPREQAQAYAERLGVTFFEVS [RAB40A] | 3.11 ± 0.17 | 3.21 ± 0.31
YRGMLDTHHKLCTFILKNPPENSD [EIF5] | 3.29 ± 0.2 | 3.25 ± 0.18
VIPFKVDTILKYLKDHFSHLLGIP [IQUB] | 2.92 ± 0.12 | 2.65 ± 0.18
ALARKQAQEQLRPQTPEPVEGRKH [RSPH3] | 5.33 ± 0.18 | 5.31 ± 0.28
GPLLGTNGATDDSKTNLIVNYLPQ [ELAVL3] | 3.84 ± 0.3 | 3.92 ± 0.24
SADVVSPSGHSDAQTLAMMLQEQL [PPFIA4] | 4.54 ± 0.32 | 4.97 ± 0.35
PEGGLEEPDALDDSLTSLQWLQEF [FOXJ1] | 4.64 ± 0.17 | 4.53 ± 0.3
PTRCTLEAGAMTFHYIIEQGVCYL [SEC22B] | 2.93 ± 0.96 | 3.14 ± 0.46
LAQRTQQDSTRTVGERLQDTHSWK [TEKT4] | 4.42 ± 0.6 | 4.64 ± 0.21
SRNFIERNHMENGGDHRYVNNYTN [TRIM29] | 3.46 ± 0.22 | 3.57 ± 0.18
AMAAAEGSSGPAGLTLGRSFSNYR [SEPHS2] | 3.82 ± 0.16 | 3.63 ± 0.23
LAPDFDRWLDESDAEMELRAKEEE [HACD3] | 5.52 ± 0.12 | 5.45 ± 0.21
RRWHKSRLLQASGGGLTGVSGSHF [PCDHGA10] | 2.67 ± 0.21 | 2.83 ± 0.16
YIRCQKEVGKSFERHKLKRQDADA [SMG5] | 3.46 ± 0.53 | 3.43 ± 0.23
RTNDGKITYPPGVKEISDKISKEE [PDS5B] | 5.02 ± 0.19 | 5.197 ± 0.006
QALRGLEGYTWRVAQLEDRRSTTD [ZSWIM9] | 3.91 ± 0.23 | 3.75 ± 0.52

Sequence | protein stability index (treatment: DMSO) | protein stability index (treatment: MLN4924 1 uM, 8 h)
SRKNATQPPNAEEESGSSSASEEE [INTS3] | 5.53 ± 0.12 | 5.71 ± 0.14
SWNVAVKFLMARKFDVLRAIELFH [PTPN9] | 2.18 ± 0.25 | 2.31 ± 0.6
TLRQKTVDWRRVSRLQEDPEGTEN [SLA] | 4.87 ± 0.27 | 4.79 ± 0.52
MGDEEKRNRAITARRQHLKSVMLQ [TNNI2] | 4.06 ± 0.3 | 4.12 ± 0.21
IEITFSYWDGSGHRRTVKMRKGNT [FAM50A] | 2.27 ± 0.25 | 2.19 ± 0.18
GPDTQDLEGQSPPQSLPSTPKAAW [PBXIP1] | 5.2 ± 0.28 | 5.07 ± 0.18
VKRLLRSDAEAVSTRWEVIAEDGT [TAF7L] | 3.69 ± 0.3 | 3.73 ± 0.64
VAAAAAATTAATAAATTTTTTSAA [SNAP91] | 5.39 ± 0.13 | 5.34 ± 0.068
TLYRNRSNLETIFRIIDSDHSGFI [PPEF2] | 2.06 ± 0.4 | 1.99 ± 0.099
SPGHSSAGQEGEDTLRRRLLAPEA [TOR1AIP2] | 4.29 ± 0.052 | 4.51 ± 0.27
EYGTCMCLVKGIFYHCSNDDEGDS [SPRY1] | 3.14 ± 0.21 | 3.27 ± 0.23
CTEILTEKKDTITNDSLSLKPSWF [MIA2] | 3.23 ± 0.28 | 3.42 ± 0.42
ADNMLEYKSWLKNLAKEQLSRENI [PPEF2] | 3.61 ± 0.27 | 3.75 ± 0.38
ASMSKRRCGVGVSVLDDLLYAVGG [KLHL20] | 2.62 ± 0.14 | 2.13 ± 0.44
LPNTLLRKDKDVARLQDFQELELV [ANKRD40] | 3.76 ± 0.11 | 3.66 ± 0.29
SAGVGRTGVFITLSIVLERMRYEG [PTPRD] | 2.08 ± 0.095 | 2.34 ± 0.28
EAFQLYQEAAQLDMLLEKLPQVAE [FLOT1] | 2.43 ± 0.37 | 2.69 ± 0.44
FSKASSSLQLVFGIELMEVDPIGH [MAGEA3] | 2.62 ± 0.6 | 2.29 ± 0.46
EYQVLLDVKARLEGEIATYRHLLE [KRT36] | 2.54 ± 0.32 | 2.53 ± 0.29
PVKASRSHQELHRELLMNHRRGLG [FAM107A] | 3.73 ± 0.27 | 3.95 ± 0.42
NTKLRQAERLFENQLVGPESIAHI [APMAP] | 3.22 ± 0.12 | 3.42 ± 0.48
PDREKGFHLDVEDYLSGVLILASE [TSN] | 2.14 ± 0.1 | 2.81 ± 0.2

Sequence | protein stability index (treatment: DMSO) | protein stability index (treatment: MLN4924 1 uM, 8 h)
TEGVTQLKLTVVEDVTVGRRQAVA [ZFYVE21] | 4.07 ± 0.18 | 4.12 ± 0.19
MMVNLRACSAPGGLVPSEKPPMMP [C2CD2L] | 2.14 ± 0.26 | 2.29 ± 0.06
ELDDTLKYSFLQFDPAPRRGEPHV [PPP2CA] | 3.2 ± 0.32 | 3.41 ± 0.31
DLCSDVNVCSLLAQTPLHVAAETG [RIPK4] | 3.46 ± 0.4 | 3.21 ± 0.47
GGGSLSGGGGSRSISASSARFVSS [KRT15] | 4.23 ± 0.47 | 4.39 ± 0.23
FSQLYLYSFISLFIYMVLSLFIAL [MCOLN1] | 3.28 ± 0.21 | 3.24 ± 0.21
CLRVGMLKEGVRLDRVRGGRQKYK [ESRRA] | 3.12 ± 0.24 | 3.42 ± 0.46
HRYIAYMANQEAAIQAFLDKCSAP [IQUB] | 2.51 ± 0.2 | 2.38 ± 0.46
AFLGDAEIIELLILSGARVNAKDN [ANKRD44] | 2.45 ± 0.73 | 2.32 ± 0.23
AIIRERSSCVKILLDHNANIDIQN [ASB7] | 2.52 ± 0.4 | 2.64 ± 0.26
LIQHQRIHKGEKPYQCSQCSKSYS [ZSCAN9] | 2.89 ± 0.3 | 3.26 ± 0.26
SGKSEISELRRTMQALEIELQSQL [KRT17] | 3.58 ± 0.35 | 3.68 ± 0.15
APLSNGLCCAFSTDGSVLAAGTHD [WSB1] | 4.06 ± 0.43 | 3.9 ± 0.24
MATPPFRLIRKMFSFKVSRWMGLA [CCDC70] | 2.51 ± 0.48 | 2.22 ± 0.099
HQRTHTGEKPFTCHECGKKFSQNS [ZNF75A] | 3.14 ± 0.27 | 3.47 ± 0.33
MANIHQENEEMEQPMQNGEEDRPL [BEX3] | 5.46 ± 0.055 | 5.71 ± 0.087
NSHVYNGRTHQWKPLYPDDYVHIS [ADAMTSL2] | 2.78 ± 0.31 | 2.8 ± 0.34
LSNQLAVTFREENTIAFRHLFLLG [MCOLN1] | 2.48 ± 0.11 | 2.5 ± 0.18
TIRSGISPNLNVVDGRLTYPTCGI [SASS6] | 2.86 ± 0.42 | 3.02 ± 0.26
KLGLHDNHWVPACHSFNRAIHKKA [FBXO34] | 2.79 ± 0.14 | 2.91 ± 0.18
GGKIIMPPSALDQLSRLNITYPML [UFD1] | 2.16 ± 0.089 | 2.28 ± 0.2
